Assay results published in article PMC11713712, “PFTAIRE peptide degrading cyclin Y and ameliorating cognitive deficits in mouse models of Alzheimer’s Disease” (Alzheimer's & Dementia, 2025).

Columns and labels:
CCNY protein [1] = target: T1, CCNY protein (Homo sapiens, UniProt Q8ND76); assay: Binding of PFTAIRE peptide to CCNY protein in in vitro studies
From the text: (§1) Utilizing solid‐phase peptide synthesis, PFTAIRE peptide was produced.

[2] = From the text: Abstract Background Cyclin Y (CCNY) is a member of cyclin protein family inhibiting long‐term synaptic plasticity, which is related to the learning and memory function in neuronal system. Recently, CCNY has been reported to associate with the cognitive deficits in Alzheimer’s disease (AD). […] This peptide is derived from the domain of cyclin‐dependent kinase 14, a kinase degrading CCNY protein, and this domain is essential for the binding to CCNY. Utilizing solid‐phase peptide synthesis, PFTAIRE peptide was produced. […] We intravenously injected PFTAIRE peptide to AD mouse models and performed behavior tests.
AD mouse models = assay: Behavior tests in AD mouse models after intravenous injection; assay type: in vivo; conditions: intravenously injected
From the text: as §1

CCNY protein [3] = target: T1, CCNY protein; assay: CCNY protein level
From the text: as §1

T1 sequence (Q8ND76 whole entry, species assumed): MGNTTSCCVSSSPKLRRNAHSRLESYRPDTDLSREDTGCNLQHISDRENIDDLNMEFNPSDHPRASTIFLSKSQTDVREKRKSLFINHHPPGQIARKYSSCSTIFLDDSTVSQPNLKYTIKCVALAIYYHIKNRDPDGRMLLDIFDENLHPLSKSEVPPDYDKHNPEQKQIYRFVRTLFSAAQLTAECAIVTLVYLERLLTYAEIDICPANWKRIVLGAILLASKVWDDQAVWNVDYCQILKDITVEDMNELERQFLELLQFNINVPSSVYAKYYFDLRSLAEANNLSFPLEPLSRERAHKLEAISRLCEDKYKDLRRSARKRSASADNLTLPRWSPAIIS

For “PFTAIRE peptide: Peptide derived from the domain of cyclin‐dependent kinase 14 essential for binding to CCNY; produced by solid‐phase peptide synthesis”, the “binding to CCNY protein” value (CCNY protein [1]) was “binds to CCNY protein”, the plasma stability [2] was “confirmed the plasma and liver microsomal stability” and the liver microsomal stability ([2]; liver microsomes) was “confirmed the plasma and liver microsomal stability”. For the same substance, the “memory impairments in behavior tests” value (AD mouse models) was “prevents memory impairments” and the CCNY protein level (CCNY protein [3]) was “diminish CCNY protein level”.
